The target in series [1] is Mycobacterium tuberculosis SecA1(S945C) labeled with Cy5 (Mycobacterium tuberculosis strain H37Rv) (UniProt P9WGP5). In words: MST; as the low salt experiment, but at moderate salt concentration (150 mM KCl); dimer to monomers.
The target is the same in series [2]. The experiment in a line: MST; Monolith NT.115; unlabeled protein (1 nM to 5 μM) titrated into 25 nM Cy5-labeled protein, mixed in 300 mM KCl, then diluted into low salt buffer (25 mM HEPES-KOH pH 7.5, 30 mM KCl, 2 mM MgCl2, 50 mM arginine); Hill fit, apparent Kd; dimer to monomers.
The target of series [3] is Mycobacterium tuberculosis SecA2(S802C) labeled with Cy5 (Mycobacterium tuberculosis strain H37Rv) (UniProt P9WGP3). The description is as above.
Series [4] addresses Mycobacterium tuberculosis SecA1(S945C) labeled with Cy5, P9WGP5. In words: fluorescence cross-correlation spectroscopy (FCCS); SecA1-Cy5 and SecA2-AF488 mixed 1:1 in 300 mM KCl, exchanged on NAP5 into 25 mM HEPES-KOH pH 7.5, 30 mM KCl, 2 mM MgCl2, 50 mM arginine; 10 min at room temperature; LSM710 confocal microscope. Conditions: other: fluorescence cross-correlation spectroscopy (FCCS).

Series [5] has as its target T1, Mycobacterium tuberculosis SecA2(S802C) labeled with Cy5 (Mycobacterium tuberculosis strain H37Rv, UniProt P9WGP3 31-808, S802C, Cy5 (Cy5-maleimide label)).
T1 construct: also called SecA2-Cy5; PIP154
T1 sequence: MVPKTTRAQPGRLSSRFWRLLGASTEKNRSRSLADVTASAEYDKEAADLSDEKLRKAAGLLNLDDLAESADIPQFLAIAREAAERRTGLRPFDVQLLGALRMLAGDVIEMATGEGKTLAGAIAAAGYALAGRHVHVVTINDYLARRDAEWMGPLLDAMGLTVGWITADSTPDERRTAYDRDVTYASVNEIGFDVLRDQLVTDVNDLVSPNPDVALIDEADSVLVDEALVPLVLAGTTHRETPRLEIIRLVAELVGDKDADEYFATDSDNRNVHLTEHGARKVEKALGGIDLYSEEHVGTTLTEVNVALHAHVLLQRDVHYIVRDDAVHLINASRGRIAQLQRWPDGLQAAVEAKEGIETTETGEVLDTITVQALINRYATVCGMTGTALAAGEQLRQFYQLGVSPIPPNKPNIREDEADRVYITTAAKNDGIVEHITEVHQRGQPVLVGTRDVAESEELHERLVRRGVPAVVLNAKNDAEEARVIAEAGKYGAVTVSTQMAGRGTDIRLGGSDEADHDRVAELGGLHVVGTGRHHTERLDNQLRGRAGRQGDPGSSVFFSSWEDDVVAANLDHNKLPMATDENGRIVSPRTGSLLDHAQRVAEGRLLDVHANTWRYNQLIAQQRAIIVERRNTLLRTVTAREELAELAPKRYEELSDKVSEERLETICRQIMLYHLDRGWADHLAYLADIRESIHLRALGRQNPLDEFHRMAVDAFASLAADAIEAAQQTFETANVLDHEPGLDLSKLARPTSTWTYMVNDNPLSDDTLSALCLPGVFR
In words: MST; as the low salt experiment, but at moderate salt concentration (150 mM KCl); dimer to monomers. Conditions: both partners purified.

Series [6] addresses Mycobacterium tuberculosis SecA1(S945C) labeled with Cy5 (Mycobacterium tuberculosis strain H37Rv) (UniProt P9WGP5). The experiment in a line: MST; Monolith NT.115; unlabeled protein (1 nM to 5 μM) titrated into 25 nM Cy5-labeled protein, mixed in 300 mM KCl, then diluted into low salt buffer (25 mM HEPES-KOH pH 7.5, 30 mM KCl, 2 mM MgCl2, 50 mM arginine); Hill fit, apparent Kd; dimer to monomers. This is another data set of the same source.

Series [7] addresses T1, Mycobacterium tuberculosis SecA2(S802C) …. The description is as above. Conditions: both partners purified.

Positions count from the first letter of the chain named. In names and notes the source's numbering stands.

Data on 3 molecules can be found in paper PMC4457860, “In Vitro Interaction of the Housekeeping SecA1 with the Accessory SecA2 Protein of Mycobacterium tuberculosis” (PLoS ONE, 2015).

Turning to “Mycobacterium tuberculosis SecA1 (unlabeled) (from UniProt P9WGP5 1-949) (natural protein)”, the Kd came out at 298 nM in series [1], 65 nM in series [2] and 438 nM in series [3].

B1: Mycobacterium tuberculosis SecA2(S802C) labeled with AlexaFluor 488 (protein)
chain: T1 sequence
With B1, the “percent of all proteins co-migrating as heterodimers” value in series [4] is 12% of all proteins co-migrated as heterodimers.

B2: Mycobacterium tuberculosis SecA2 (unlabeled) (natural protein)
chain: T1 sequence with C773S
notes: No tag; molecular mass 85 kDa on SDS-PAGE; also called PIP152
As for B2, the Kd in series [5] stood at 618 ± 36.5 nM; in series [6], 378 nM; in series [7], 161 ± 6.2 nM.
